# Results published in patent US20260250352A1 (ALPINE IMMUNE SCIENCES, published 2026).
# “And” between values parts separate entries of the source, which are not always exact repeats. Identical values can stand only once. Like-named read-outs stand apart in the source and are kept apart here.
# T1: recombinant human APRIL (human, UniProt O75888 105-250, limits assumed)
# T1 sequence (looked up): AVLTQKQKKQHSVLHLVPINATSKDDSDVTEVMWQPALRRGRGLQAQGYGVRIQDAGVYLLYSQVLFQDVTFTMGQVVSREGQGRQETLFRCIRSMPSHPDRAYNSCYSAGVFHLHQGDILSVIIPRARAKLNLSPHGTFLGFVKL
# T2: recombinant mouse APRIL (mouse, UniProt Q9D777 96-241, limits assumed)
# T2 sequence (looked up): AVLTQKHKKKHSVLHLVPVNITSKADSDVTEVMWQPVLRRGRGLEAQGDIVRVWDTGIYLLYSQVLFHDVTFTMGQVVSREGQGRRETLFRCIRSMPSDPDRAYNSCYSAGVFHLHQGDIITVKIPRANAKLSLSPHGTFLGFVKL
# B1: Belimumab (antibody, V domains shown)
# VH: QVQLQQSGAEVKKPGSSVRVSCKASGGTFNNNAINWVRQAPGQGLEWMGGIIPMFGTAKYSQNFQGRVAITADESTGTASMELSSLRSEDTAVYYCARSRDLLLFPHHALSPWGRGTMVTVSS
# VL: SSELTQDPAVSVALGQTVRVTCQGDSLRSYYASWYQQKPGQAPVLVIYGKNNRPSGIPDRFSGSSSGNTASLTITGAQAEDEADYYCSSRDSSGNHWVFGGGTELTVLG
# B2: Telitacicept (Fc fusion)
# chain: SRVDQEERFPQGLWTGVAMRSCPEEQYWDPLLGTCMSCKTICNHQSQRTCAAFCRSLSCRKEQGKFYDHLLRDCISCASICGQHPKQCAYFCENKLRSPVNLPPEL
# modifications: The drug is a disulfide-linked Fc-fusion homodimer. Only one TACI ECD arm is given, and the Fc is left out.
# notes: Commercial product (sourced through Clinigen; RemeGen); also called Telitacicept/Tai'ai (RemeGen); WT TACI-Fc (Telitacicept); not shown: Fc part of the commercial drug (Clinigen/RemeGen)
# B3: WT TACI 13-118-Fc based on the published telitacicept sequence (Fc fusion)
# chain: B2 chain
# Legend:
# recombinant human BAFF [1] = molecular target: T3, recombinant human BAFF (human, UniProt Q9Y275 134-285); test: cell-based or functional assay
# recombinant human BAFF [2] = molecular target: T3, recombinant human BAFF; test: cell-based or functional assay; remark: listed apart in the source
# recombinant human BAFF [3] = molecular target: T3, recombinant human BAFF; test: cell-based or functional assay; remark: listed apart in the source
# [4] = molecular target: single chain APRIL-BAFF-BAFF heterotrimer (ABB) (human, UniProt O75888 111-250; Q9Y275 140-285; Q9Y275 140-285, limits assumed); test: cell-based or functional assay
# [5] = molecular target: single chain BAFF homotrimer (BAFF-BAFF-BAFF) (human, UniProt Q9Y275 140-285, limits assumed); test: cell-based or functional assay
# recombinant human BAFF [6] = molecular target: T3, recombinant human BAFF; test: cell-based or functional assay; remark: listed apart in the source
# recombinant human APRIL [7] = molecular target: T1, recombinant human APRIL; test: cell-based or functional assay
# recombinant human BAFF [8] = molecular target: T3, recombinant human BAFF; test: SPR
# [9] = molecular target: single chain BAFF-APRIL-APRIL heterotrimer (BAA) (human, UniProt Q9Y275 140-285; O75888 111-250; O75888 111-250, limits assumed); test: cell-based or functional assay
# BAFF 60-mer = BAFF 60-mer (human, UniProt Q9Y275 134-285, limits assumed); test: cell-based or functional assay
# recombinant human APRIL [10] = molecular target: T1, recombinant human APRIL; test: cell-based or functional assay; remark: listed apart in the source
# recombinant mouse APRIL = molecular target: T2, recombinant mouse APRIL; test: cell-based or functional assay
# recombinant mouse BAFF = recombinant mouse BAFF (mouse, UniProt Q9WU72 127-309); test: cell-based or functional assay
# Chain of recombinant mouse BAFF (Q9WU72 127-309 limits assumed): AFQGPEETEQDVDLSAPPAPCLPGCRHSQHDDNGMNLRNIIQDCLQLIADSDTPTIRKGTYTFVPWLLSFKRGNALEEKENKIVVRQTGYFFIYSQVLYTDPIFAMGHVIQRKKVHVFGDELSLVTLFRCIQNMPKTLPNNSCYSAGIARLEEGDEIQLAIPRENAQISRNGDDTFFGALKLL
Binder,"IC50, Jurkat/NF-kB/TACI reporter (recombinant human BAFF [1])",IC50 relative to TACI 30-110-Fc (recombinant human BAFF [1]),"IC50, Jurkat/NF-kB/TACI reporter (recombinant human BAFF [2])","IC50, Jurkat/NF-kB/TACI reporter (recombinant human BAFF [3])",IC50 relative to WT TACI (68-110)-Fc (Δ WT) (recombinant human BAFF [3]),"IC50, TACI/Jurkat/NF-kB reporter [4]","IC50, TACI/Jurkat/NF-kB reporter [5]","IC50, TACI/Jurkat/NF-kB reporter (recombinant human BAFF [6])","IC50, Jurkat/NF-kB/TACI reporter (recombinant human APRIL [7])",Kd (recombinant human BAFF [8]),koff (recombinant human BAFF [8]),kon (recombinant human BAFF [8]),"IC50, TACI/Jurkat/NF-kB reporter [9]","IC50, TACI/Jurkat/NF-kB reporter (BAFF 60-mer)","IC50, TACI/Jurkat/NF-kB reporter (recombinant human APRIL [10])","IC50, TACI/Jurkat/NF-kB reporter (recombinant mouse APRIL)","IC50, TACI/Jurkat/NF-kB reporter (recombinant mouse BAFF)"
B1,2500 nM,0.43 ratio,2.26 nM,2.19 nM,1.18 ratio,0.09 nM,8.52 nM,4.8 nM,,,,,,,,,
B2,,,6.85 nM,9.17 nM and 7.3 nM,,0.408 nM,30.8 nM,14.5 nM,17.2 nM,0.491 nM,8.63e-05 s⁻¹,175000 M⁻¹ s⁻¹,0.173 nM,> 100 nM,53.9 nM,15.5 nM,7.9 nM
B3,,,,,,,,19.6 nM,,,,,,,73.1 nM,14.3 nM,9.4 nM
